Test results: patent US20240376151A1, “STAPLED PEPTIDES AND METHODS THEREOF” (FOG PHARMACEUTICALS, INC., priority 2022, published 2024)

Key:
Expi293 cells [1] = assay: CellTiter-Glo cell health (ATP levels) during cell association assay; assay type: cell-based; conditions: reflective of cell health, luminescence Tfinal (22 hours) / Tinitial
Expi293 cells [2] = assay: Measurement of the Cell Association of Helicons (mass spectrometry quantification in cells after treatment and wash); assay type: cell-based; conditions: percentage of Helicons in cells after treatment and wash, 22 hours, n = 2, mean ± SD
Method: All samples were analyzed using mass spectrometry.

CUL1 = molecular target: T1, CUL1 (Homo sapiens, UniProt Q13616, L371D/V367R); assay: Naive Library Presenter Screening (phage, NGS), CUL1; assay type: binding; conditions: for interaction data at Target Concentration 10: CUL1 target concentration 10 nM; for interaction data at Target Concentration 30: CUL1 target concentration 30 nM; for interaction data at Target Concentration 100: CUL1 target concentration 100 nM; for interaction data at Target Concentration 300: CUL1 target concentration 300 nM; for interaction data at Target Concentration 1000: CUL1 target concentration 1000 nM
T1 construct: CUL1 (Uniprot ID: Q13616, residue 15-410, V367R/L371D); GST-TEV (N, cleaved yes); made in house; host or cells: E. coli BL21 CodonPlus
T1 sequence (Q13616 15-410 V367R/L371D): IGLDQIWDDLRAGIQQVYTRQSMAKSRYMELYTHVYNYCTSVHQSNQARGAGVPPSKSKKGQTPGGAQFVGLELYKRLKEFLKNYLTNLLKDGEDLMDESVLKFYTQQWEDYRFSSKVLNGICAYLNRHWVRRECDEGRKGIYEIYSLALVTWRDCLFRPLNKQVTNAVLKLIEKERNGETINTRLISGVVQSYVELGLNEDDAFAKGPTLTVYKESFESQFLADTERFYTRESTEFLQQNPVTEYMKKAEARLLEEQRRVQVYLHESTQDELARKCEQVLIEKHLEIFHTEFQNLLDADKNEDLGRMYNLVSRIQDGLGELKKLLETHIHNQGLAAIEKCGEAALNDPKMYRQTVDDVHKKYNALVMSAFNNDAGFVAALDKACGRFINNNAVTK

Compound | CellTiter-Glo fold change ± SD (Expi293 cells [1]) | Helicon in cells ± SD (%) (Expi293 cells [2]) | interaction data at Target Concentration 10 (CUL1) | interaction data at Target Concentration 30 (CUL1) | interaction data at Target Concentration 100 (CUL1) | interaction data at Target Concentration 300 (CUL1) | interaction data at Target Concentration 1000 (CUL1; first column) | interaction data at Target Concentration 1000 (CUL1; second column)
CCCC[C@H](NC(=O)[C@@H](NC(C)=O)C(C)C)C(=O)N[C@@H](CCC(=O)O)C(=O)N[C@]1(C)CCCCCCC=CCCC[C@@](C)(C(=O)N[C@@H](Cc2c[nH]cn2)C(=O)N[C@@H](Cc2ccc(O)cc2)C(=O)N[C@H](C(N)=O)C(C)C)NC(=O)[C@H]([C@@H](C)CC)NC(=O)[C@H](Cc2ccccc2)NC(=O)[C@H](C)NC(=O)[C@H](C)NC(=O)[C@H](CCC(=O)O)NC(=O)[C@H](Cc2ccc(O)cc2)NC1=O (single isomer, unassigned) [FP07855, Ac-Val-nLeu-Glu-R8-Tyr-Glu-Ala-Ala-Phe-Ile-S5-His-Tyr-Val-NH2] | 1.2 ± 0.10 | 16.4 ± 0.6 | – | – | – | – | – | –
CCCC[C@H](NC(=O)[C@@H](NC(C)=O)C(C)C)C(=O)N[C@@H](CCC(=O)O)C(=O)N[C@]1(C)CCCCCCC=CCCC[C@@](C)(C(=O)N[C@@H](Cc2c[nH]cn2)C(=O)N[C@@H](Cc2ccc(O)cc2)C(=O)N[C@H](C(N)=O)C(C)C)NC(=O)[C@H]([C@@H](C)CC)NC(=O)[C@H](Cc2ccccc2)NC(=O)[C@H](C)NC(=O)[C@H](C)NC(=O)[C@H](CCC(=O)O)NC(=O)[C@H](Cc2ccc(O)cc2)NC1=O (single isomer, unassigned) [FP07856, Ac-Val-nLeu-Glu-R8-Tyr-Glu-Ala-Ala-Phe-Ile-S5-His-Tyr-Val-NH2] | 1.3 ± 0.12 | 15.5 ± 0.9 | – | – | – | – | – | –
CC[C@H](C)[C@H](NC(C)=O)C(=O)N[C@@H](CC(C)C)C(=O)N[C@@H](CCC(N)=O)C(=O)N[C@]1(C)CCCCCCC=CCCC[C@@](C)(C(=O)N[C@@H](Cc2c[nH]cn2)C(=O)N[C@@H](Cc2ccc(O)cc2)C(=O)N[C@@H](CCC(N)=O)C(N)=O)NC(=O)[C@H](CO)NC(=O)[C@H](Cc2ccccc2)NC(=O)[C@H](C)NC(=O)[C@H](C)NC(=O)[C@H](CCC(=O)O)NC(=O)[C@H](Cc2ccc(O)cc2)NC1=O (single isomer, unassigned) [FP07859, Ac-Ile-Leu-Gln-R8-Tyr-Glu-Ala-Ala-Phe-Ser-S5-His-Tyr-Gln-NH2] | 1.2 ± 0.02 | 0.1 ± 0.0 | – | – | – | – | – | –
CC[C@H](C)[C@H](NC(C)=O)C(=O)N[C@@H](CC(C)C)C(=O)N[C@@H](CCC(N)=O)C(=O)N[C@]1(C)CCCCCCC=CCCC[C@@](C)(C(=O)N[C@@H](Cc2c[nH]cn2)C(=O)N[C@@H](Cc2ccc(O)cc2)C(=O)N[C@@H](CCC(N)=O)C(N)=O)NC(=O)[C@H](CO)NC(=O)[C@H](Cc2ccccc2)NC(=O)[C@H](C)NC(=O)[C@H](C)NC(=O)[C@H](CCC(=O)O)NC(=O)[C@H](Cc2ccc(O)cc2)NC1=O (single isomer, unassigned) [FP07860, Ac-Ile-Leu-Gln-R8-Tyr-Glu-Ala-Ala-Phe-Ser-S5-His-Tyr-Gln-NH2] | 1.2 ± 0.03 | 0.3 ± 0.0 | – | – | – | – | – | –
CCCC[C@H](NC(=O)[C@@H](NC(C)=O)C(C)C)C(=O)N[C@@H](CCC(N)=O)C(=O)N[C@]1(C)CCCCCCC=CCCC[C@@](C)(C(=O)N[C@@H](Cc2c[nH]cn2)C(=O)N[C@@H](Cc2ccc(O)cc2)C(=O)N[C@H](C(N)=O)C(C)C)NC(=O)[C@H]([C@@H](C)CC)NC(=O)[C@H](Cc2ccccc2)NC(=O)[C@H](C)NC(=O)[C@H](C)NC(=O)[C@H](CCC(=O)O)NC(=O)[C@H](Cc2ccc(O)cc2)NC1=O (single isomer, unassigned) [FP07863, Ac-Val-nLeu-Gln-R8-Tyr-Glu-Ala-Ala-Phe-Ile-S5-His-Tyr-Val-NH2] | 1.2 ± 0.02 | 23.5 ± 6.5 | – | – | – | – | – | –
CCCC[C@H](NC(=O)[C@@H](NC(C)=O)C(C)C)C(=O)N[C@@H](CCC(N)=O)C(=O)N[C@]1(C)CCCCCCC=CCCC[C@@](C)(C(=O)N[C@@H](Cc2c[nH]cn2)C(=O)N[C@@H](Cc2ccc(O)cc2)C(=O)N[C@H](C(N)=O)C(C)C)NC(=O)[C@H]([C@@H](C)CC)NC(=O)[C@H](Cc2ccccc2)NC(=O)[C@H](C)NC(=O)[C@H](C)NC(=O)[C@H](CCC(=O)O)NC(=O)[C@H](Cc2ccc(O)cc2)NC1=O (single isomer, unassigned) [FP07864, Ac-Val-nLeu-Gln-R8-Tyr-Glu-Ala-Ala-Phe-Ile-S5-His-Tyr-Val-NH2] | 1.1 ± 0.05 | 18.5 ± 11.4 | – | – | – | – | – | –
CCCC[C@H](NC(=O)[C@@H](NC(C)=O)C(C)C)C(=O)N[C@@H](CCC(=O)O)C(=O)N[C@]1(C)CCCCCCC=CCCC[C@@](C)(C(=O)N[C@@H](Cc2c[nH]cn2)C(=O)N[C@@H](Cc2ccc(O)cc2)C(=O)N[C@H](C(N)=O)C(C)C)NC(=O)[C@H]([C@@H](C)CC)NC(=O)[C@H](Cc2ccccc2)NC(=O)[C@H](C)NC(=O)[C@H](C)NC(=O)[C@H](CCC(N)=O)NC(=O)[C@H](Cc2ccc(O)cc2)NC1=O (single isomer, unassigned) [FP07867, Ac-Val-nLeu-Glu-R8-Tyr-Gln-Ala-Ala-Phe-Ile-S5-His-Tyr-Val-NH2] | 1.2 ± 0.03 | 8.6 ± 0.4 | – | – | – | – | – | –
CCCC[C@H](NC(=O)[C@@H](NC(C)=O)C(C)C)C(=O)N[C@@H](CCC(=O)O)C(=O)N[C@]1(C)CCCCCCC=CCCC[C@@](C)(C(=O)N[C@@H](Cc2c[nH]cn2)C(=O)N[C@@H](Cc2ccc(O)cc2)C(=O)N[C@H](C(N)=O)C(C)C)NC(=O)[C@H]([C@@H](C)CC)NC(=O)[C@H](Cc2ccccc2)NC(=O)[C@H](C)NC(=O)[C@H](C)NC(=O)[C@H](CCC(N)=O)NC(=O)[C@H](Cc2ccc(O)cc2)NC1=O (single isomer, unassigned) [FP07868, Ac-Val-nLeu-Glu-R8-Tyr-Gln-Ala-Ala-Phe-Ile-S5-His-Tyr-Val-NH2] | 1.2 ± 0.10 | 10.3 ± 1.4 | – | – | – | – | – | –
CCCC[C@H](NC(=O)[C@@H](NC(C)=O)C(C)C)C(=O)N[C@@H](CCC(N)=O)C(=O)N[C@]1(C)CCCCCCC=CCCC[C@@](C)(C(=O)N[C@@H](Cc2c[nH]cn2)C(=O)N[C@@H](Cc2ccc(O)cc2)C(=O)N[C@H](C(N)=O)C(C)C)NC(=O)[C@H]([C@@H](C)CC)NC(=O)[C@H](Cc2ccccc2)NC(=O)[C@H](C)NC(=O)[C@H](C)NC(=O)[C@H](CCC(N)=O)NC(=O)[C@H](Cc2ccc(O)cc2)NC1=O (single isomer, unassigned) [FP07871, Ac-Val-nLeu-Gln-R8-Tyr-Gln-Ala-Ala-Phe-Ile-S5-His-Tyr-Val-NH2] | 1.2 ± 0.03 | 7.0 ± 0.3 | – | – | – | – | – | –
CCCC[C@H](NC(=O)[C@@H](NC(C)=O)C(C)C)C(=O)N[C@@H](CCC(N)=O)C(=O)N[C@]1(C)CCCCCCC=CCCC[C@@](C)(C(=O)N[C@@H](Cc2c[nH]cn2)C(=O)N[C@@H](Cc2ccc(O)cc2)C(=O)N[C@H](C(N)=O)C(C)C)NC(=O)[C@H]([C@@H](C)CC)NC(=O)[C@H](Cc2ccccc2)NC(=O)[C@H](C)NC(=O)[C@H](C)NC(=O)[C@H](CCC(N)=O)NC(=O)[C@H](Cc2ccc(O)cc2)NC1=O (single isomer, unassigned) [FP07872, Ac-Val-nLeu-Gln-R8-Tyr-Gln-Ala-Ala-Phe-Ile-S5-His-Tyr-Val-NH2] | 1.1 ± 0.02 | 11.7 ± 1.6 | – | – | – | – | – | –
CC[C@H](C)[C@H](NC(=O)[C@H](Cc1ccc(O)cc1)NC(=O)[C@H](CCC(N)=O)NC(=O)[C@]1(C)CCCC=CCCCCCC[C@@](C)(NC(=O)[C@H](Cc2c[nH]cn2)NC(=O)[C@@H](NC(=O)[C@@H](NC(C)=O)[C@@H](C)CC)[C@@H](C)CC)C(=O)N[C@@H](Cc2ccc(O)cc2)C(=O)N[C@@H](CCC(=O)O)C(=O)N[C@@H](C)C(=O)N[C@@H](C)C(=O)N[C@@H](Cc2ccccc2)C(=O)N[C@@H](Cc2ccccc2)C(=O)N1)C(N)=O (single isomer, unassigned) [FP08011, Ac-Ile-Ile-His-R8-Tyr-Glu-Ala-Ala-Phe-Phe-S5-Gln-Tyr-Ile-NH2] | 1.2 ± 0.01 | 6.5 ± 0.5 | – | – | – | – | – | –
CC[C@H](C)[C@H](NC(=O)[C@H](Cc1ccc(O)cc1)NC(=O)[C@H](CCC(N)=O)NC(=O)[C@]1(C)CCCC=CCCCCCC[C@@](C)(NC(=O)[C@H](Cc2c[nH]cn2)NC(=O)[C@@H](NC(=O)[C@@H](NC(C)=O)[C@@H](C)CC)[C@@H](C)CC)C(=O)N[C@@H](Cc2ccc(O)cc2)C(=O)N[C@@H](CCC(=O)O)C(=O)N[C@@H](C)C(=O)N[C@@H](C)C(=O)N[C@@H](Cc2ccccc2)C(=O)N[C@@H](Cc2ccccc2)C(=O)N1)C(N)=O (single isomer, unassigned) [FP08012, Ac-Ile-Ile-His-R8-Tyr-Glu-Ala-Ala-Phe-Phe-S5-Gln-Tyr-Ile-NH2] | 1.1 ± 0.04 | 5.4 ± 0.9 | – | – | – | – | – | –
DPAQILCDLAALYCVVE | – | – | 0 | 7 | 61 | 73 | 111 | 119
DPAQNDCEVAAFFCWLD | – | – | 1 | 1 | 233 | 428 | 586 | 468
DPAVMECDWAATICDIF | – | – | 0 | 2 | 154 | 402 | 477 | 419
DPAYDWCDVAALFCLVE | – | – | 0 | 0 | 57 | 36 | 57 | 151
DPAYFACDIAALMCTVH | – | – | 0 | 2 | 131 | 135 | 403 | 120
